{"source": "paper PMC12766925", "about": "“Functional assembly of the Qc-SNARE with Sec18 and Sec17 on membranes” (Molecular Biology of the Cell, 2025)", "binders": {"B1": {"name": "Sec17 (natural protein, UniProt P32602 1-292, looked up)", "chain": "MSDPVELLKRAEKKGVPSSGFMKLFSGSDSYKFEEAADLCVQAATIYRLRKELNLAGDSFLKAADYQKKAGNEDEAGNTYVEAYKCFKSGGNSVNAVDSLENAIQIFTHRGQFRRGANFKFELGEILENDLHDYAKAIDCYELAGEWYAQDQSVALSNKCFIKCADLKALDGQYIEASDIYSKLIKSSMGNRLSQWSLKDYFLKKGLCQLAATDAVAAARTLQEGQSEDPNFADSRESNFLKSLIDAVNEGDSEQLSEHCKEFDNFMRLDKWKITILNKIKESIQQQEDDLL", "notes": "Sec17, yeast, YBL050W; Plasmid from Schwartz and Merz, 2009; also called Sec17/SNAP; wild-type Sec17; source: E. coli Rosetta2(DE3), purified (chitin resin, DTT cleavage, dialysed into Rb150)"}}, "key": {"[1]": {"target": "T1, His6-Sec18 (yeast (Saccharomyces Genome Database …, UniProt P18759 1-758))", "T1 construct": "Sec18, yeast, YBR080C; construct from Haas and Wickner, 1996; also called Sec18/NSF; source: E. coli XL1 Blue/pQE9-His6-Sec18, purified (Ni-NTA, Superdex 200)", "T1 sequence (looked up)": "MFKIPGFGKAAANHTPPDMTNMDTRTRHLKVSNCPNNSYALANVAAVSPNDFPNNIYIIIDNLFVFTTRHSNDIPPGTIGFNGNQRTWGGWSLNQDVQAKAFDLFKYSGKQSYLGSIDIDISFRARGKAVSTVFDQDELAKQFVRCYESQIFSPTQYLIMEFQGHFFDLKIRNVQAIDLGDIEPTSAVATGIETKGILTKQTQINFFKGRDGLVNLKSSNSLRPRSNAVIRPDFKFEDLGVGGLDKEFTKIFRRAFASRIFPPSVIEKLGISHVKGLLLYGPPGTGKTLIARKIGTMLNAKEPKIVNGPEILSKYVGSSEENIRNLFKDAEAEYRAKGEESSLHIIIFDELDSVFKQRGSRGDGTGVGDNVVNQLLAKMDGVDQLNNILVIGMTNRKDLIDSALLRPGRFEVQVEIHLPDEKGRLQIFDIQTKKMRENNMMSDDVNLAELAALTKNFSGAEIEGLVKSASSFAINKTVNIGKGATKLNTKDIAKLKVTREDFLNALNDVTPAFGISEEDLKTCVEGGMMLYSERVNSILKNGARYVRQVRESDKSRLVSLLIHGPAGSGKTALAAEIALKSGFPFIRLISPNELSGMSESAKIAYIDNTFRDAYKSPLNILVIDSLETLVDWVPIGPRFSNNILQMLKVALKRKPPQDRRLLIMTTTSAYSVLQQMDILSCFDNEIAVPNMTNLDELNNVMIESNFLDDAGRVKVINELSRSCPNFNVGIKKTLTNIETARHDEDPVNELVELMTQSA", "experiment": "liposome floatation (density gradient) with immunoblot; protein-free VML liposomes, 1 mM Mg:ATPyS, where indicated 1 µM Sec17, 250 nM Sec18, 2 µM Qc; Rb150, 27°C 1 h; floated through Histodenz; bound proteins by Western blot", "details": "both partners purified"}, "[2]": {"target": "T2, complex of RQaQb on proteoliposomes (yeast (Saccharomyces Genome Database …, UniProt Q12255 1-253; Q12241 1-283; Q04338 1-217)", "T2 construct": "Nyv1 (R SNARE), yeast, YLR093C; as m5; Vam3 (Qa SNARE), yeast, YOR106W; as m6; Vti1 (Qb SNARE), yeast, YMR197C; as m7; also called R, Qa, and Qb; source: purified SNAREs (Mima et al., 2008) reconstituted together into VML proteoliposomes; copies: + +", "T2 sequence (Q12255 whole entry, chain 1 of 3)": "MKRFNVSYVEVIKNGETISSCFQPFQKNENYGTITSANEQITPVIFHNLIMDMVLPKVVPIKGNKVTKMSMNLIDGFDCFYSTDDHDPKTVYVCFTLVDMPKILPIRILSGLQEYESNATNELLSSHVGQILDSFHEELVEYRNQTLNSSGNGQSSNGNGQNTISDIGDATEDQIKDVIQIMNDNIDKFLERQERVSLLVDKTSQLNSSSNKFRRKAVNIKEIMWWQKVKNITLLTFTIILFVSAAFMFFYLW", "T2 sequence (Q12241 whole entry, chain 2 of 3)": "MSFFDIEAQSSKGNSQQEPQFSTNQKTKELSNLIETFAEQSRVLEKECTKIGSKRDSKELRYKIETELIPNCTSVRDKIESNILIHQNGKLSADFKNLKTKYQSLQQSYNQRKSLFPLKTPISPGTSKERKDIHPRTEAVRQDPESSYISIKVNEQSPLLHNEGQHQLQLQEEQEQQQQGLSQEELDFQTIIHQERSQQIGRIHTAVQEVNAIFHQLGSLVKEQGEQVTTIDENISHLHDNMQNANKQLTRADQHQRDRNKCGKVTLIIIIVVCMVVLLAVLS", "T2 sequence (Q04338 whole entry, chain 3 of 3)": "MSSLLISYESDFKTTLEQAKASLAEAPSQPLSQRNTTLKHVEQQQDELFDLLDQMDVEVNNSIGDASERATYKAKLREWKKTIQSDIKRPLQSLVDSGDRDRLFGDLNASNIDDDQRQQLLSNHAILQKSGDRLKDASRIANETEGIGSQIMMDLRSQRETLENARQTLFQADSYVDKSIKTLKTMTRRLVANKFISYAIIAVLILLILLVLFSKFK", "experiment": "liposome floatation (density gradient) with immunoblot; VML proteoliposomes with no SNAREs, single or several anchored SNAREs (1:2000 to lipid), 0.5 mM lipid, 1 µM added Sec17, Rb150, 0.04% defatted BSA, 1 mM MgCl2, 27°C 1 h; floated through Histodenz; bound Sec17 by Western blot", "details": "both partners purified"}}, "data": [{"binder": "B1", "values": [{"measurement": "binding result", "setting": "[1]", "value": "binds"}, {"measurement": "binding result", "setting": "[2]", "value": "binds"}]}]}
